In the supplement of paper PMC10724198:
± gives the standard deviation of the averaged measurements.

How the values were obtained:
Saccharomyces cerevisiae [1] = assay: protein stability index of tFT-peptide fusion in wild type (PSI (0-1 scale)); higher = more stable (slower turnover); conditions: genetic background: wild type
Saccharomyces cerevisiae [2] = assay: protein stability index of tFT-peptide fusion (C-terminal peptide) (PSI (0-1 scale)); higher = more stable (slower turnover); conditions: genetic background: wild type; temperature: 30 C
Saccharomyces cerevisiae [3] = assay: protein stability index of tFT-peptide fusion in deletion strain of DOA10 (PSI (0-1 scale)); higher = more stable (slower turnover)
Description: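 MPS profiling in S. cerevisiae of two library types built from selected 12-aa C-degron peptides (IN1, IN2, LN1, LN3, VN2, R1-R5, W1-W3, Atg1 and Rpa12 C-termini): saturation mutagenesis libraries and C-terminal +1 capping libraries (13 aa). Each peptide is fused to the C-terminus of a sfGFP-mCherry timer, after a GGGS linker. Cells are FACS-sorted into 8 mCherry/sfGFP bins and sequenced. PSI runs from 0 (unstable) to 1 (stable), measured once in wild type and in the das1Δ or doa10Δ background.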

Saccharomyces cerevisiae [4] = assay: protein stability index of tFT-peptide fusion (C-terminal peptide) (PSI (0-1 scale)); higher = more stable (slower turnover)
Description: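 MPS profiling in S. cerevisiae of the tFT-X12 degron library: putative degron peptides plus stable controls, 12 aa, fused to the C-terminus of a sfGFP-mCherry timer. Cells are FACS-sorted into 8 mCherry/sfGFP bins and deep-sequenced. PSI runs from 0 (unstable) to 1 (stable). Backgrounds are wild type, das1Δ and doa10Δ at 30 °C, and wild type, das1Δ, cdc34-1 and cdc53-1 at 37 °C; 2-3 technical replicates each.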
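Throughout, for protein stability index of tFT-peptide fusion (C-terminal peptide): PSI is a weighted mean of sequencing reads over stability bins, variants kept only with over 10 reads, mCherry proximal and sfGFP distal, peptide attached via GGGS linker.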
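Throughout, for protein stability index of tFT-peptide fusion in deletion strain of DOA10: PSI per variant is the weighted mean of its sequencing read distribution over the sorted stability bins, counting only variants with over 10 reads summed across bins.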
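Throughout, for protein stability index of tFT-peptide fusion in wild type: PSI derived as read-weighted mean over the 8 sorting bins, only variants exceeding 10 total reads kept, mCherry placed adjacent to the peptide and sfGFP distal.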

Sequence	protein stability index (Saccharomyces cerevisiae [1])	protein stability index (Saccharomyces cerevisiae [3])	also measured
RVTRLDAIYFRI	0.328	0.681	protein stability index (Saccharomyces cerevisiae [2]): 0.381 ± 0.019; protein stability index (Saccharomyces cerevisiae [4]; genetic background: cdc34-1, temperature: 37 C): 0.265 ± 0.06; protein stability index (Saccharomyces cerevisiae [4]; genetic background: cdc53-1, temperature: 37 C): 0.198 ± 0.0072; protein stability index (Saccharomyces cerevisiae [4]; genetic background: das1 deletion, temperature: 30 C): 0.341 ± 0.031; protein stability index (Saccharomyces cerevisiae [4]; genetic background: das1 deletion, temperature: 37 C): 0.351 ± 0.012; protein stability index (Saccharomyces cerevisiae [4]; genetic background: doa10 deletion, temperature: 30 C): 0.717 ± 0.03; protein stability index (Saccharomyces cerevisiae [4]; genetic background: wild type, temperature: 30 C): 0.312 ± 0.014; protein stability index (Saccharomyces cerevisiae [4]; genetic background: wild type, temperature: 37 C): 0.323 ± 0.0054
RDTRLDAIYFRI	0.563	0.644	
RSLGVLLPLYFR	0.321	0.691	
RVTRLDAGYFRI	0.673	0.702	
AITLPNCPLLLR	0.337	0.682	
RSLRVLLPLYFT	0.265	0.478	
GLYMCSVGCWFK	0.291	0.628	
AITLPMCALLLR	0.149	0.638	
GLYMCSVGCWFRF	0.166	0.636	
GLYMCSVGGWFR	0.644	0.674	
CLHSLPILLFFR	0.0715	0.626	
CLVSCPILLFFR	0.0926	0.578	
RFTRLDAIYFRI	0.378	0.656	
RSLRVLLPLYAR	0.348	0.474	
RWLRVLLPLYFR	0.402	0.682	
AITVPMCPLLLR	0.299	0.656	
RSLRVLLPLYFRT	0.268	0.655	
